Assay results reported in publication PMC9576894.

Molecular target: MUC4 glycopeptide
Experiment: peptide or protein array; glycan microarray, components printed on epoxy slides; re-expressed antibody in solution at four concentrations from 1.5 to 100 μg/ml on the 873-component array; PBS pH 7.4, 0.05% Tween-20, 3% BSA; 37 °C, 3.5 h; detected with Cy3 anti-human IgG; apparent KD estimated by the method of Gordus and MacBeath

B1: ADI-47299 (antibody, V domains shown)
VH: QVQLVQSGGGVVQPGRSLRLSCAASGFTFRLYSMHWVRQAPGKGLEWVGVISHTVTDKLYADSVKGRFSVSRDNSKNTLFLQMDSLRAEDTAVYYCARDGFDYWGQGTLVTVSS
VL: EIVMTQSPLSLPVTLGQPASISCKSSQSLVYSDGDTYLNWFQQRPGQSPRRLIYKVSKRDSGVPDRFSGSGSGTDFTLKISRVEAEDLGVYYCMQGTHWPLTFGPGTKLEIK
In the case of B1, the Kd is reported as > 1000 nM.
